How the values were obtained:
[1] = system: human iPS cells ("Tic"); experiment: Cell growth property evaluation 1 (different media); format: cell-based; conditions: for cell growth properties with Essential 8 or NutriStem not containing 2-mercaptoethanol versus media containing it: Table 11; for Cell growth rate: polypeptide 100 μg/ml, 72 hours, RCP-11 with Essential 8 = 100%, n=3
Description: Furthermore, for evaluation, human iPS cells (“Tic”) that were retention-cultured as described in <Cell adhesiveness evaluation 1> of reference example were treated with TrypLE Select (Invitrogen) for 5 minutes at 37° C. and separated into a single cell. After being subjected to centrifugation for 2 minutes at 300 rpm, the cells were collected, suspended in each medium, and used for the evaluation in each example. Herein, Y-27362 ((R)-(+)-trans-N-(4-pyridyl)-4-(1-aminoethyl)-cyclohexane carboxamide.2HCl.H2O, an Rho binding kinase inhibitor, Wako Pure Chemical Industries, Ltd.) was added to all of the media at a final concentration of 10 μM.
Each of RCP-11, RCP-5, and recombinant laminin (Human Recombinant Laminin-511: BIOLAMINA AB) as control was added to and suspended in a predetermined buffer (a dialysis buffer used in <GRAVY value and aggregation characteristics> of reference examples for RCP-11 and RCP-5, and PBS for the recombinant laminin) at the final concentration shown in Table 11, thereby preparing polypeptide solutions. The polypeptide solutions were added to the respective wells of a plasma-treated 96-well plate made of polystyrene (BD Falcon) having a plasma-treated cell culture surface and held as they were so as to be adsorbed onto the plate for 2 hours at 37° C. In this way, a peptide-treated 96-well plate having a polypeptide-coated surface was obtained. The iPS cells suspended in the respective media shown in Table 11 were seeded into the respective wells of the obtained peptide-treated 96-well plate at a cell density of 10,000 cells/well. After the cells were cultured for 72 hours, nonadhesive cells were washed off with PBS, and only adhesive cells were immobilized using 4% by mass of paraformaldehyde (Wako Pure Chemical Industries, Ltd.). By using an Attophos (registered trademark) AP Fluorescent Substrate System (Promega Corporation), the ALP activity was calculated, and from the calibration curve, the number of undifferentiated iPS cells having the ALP activity was calculated. In Table 11, the cell adhesion rate is expressed as a ratio calculated by regarding the number of pluripotent stem cells after the culture for 72 hours in a combination of RCP-11 and Essential 8 as being 100%. n=3.
In Table 11, “% by mass” in the concentration of 2-meracptoethanol is a proportion (w/v %) of mass (g) of 2-meracptoethanol per 100 mL of the total volume of the medium at the time of culture.

[2] = Evaluation 1 about amount of residual polypeptide adsorbed (ELISA, media); format: physicochemical; conditions: for Residual rate of polypeptide (%): four days after the starting of culture, amount adsorbed immediately after start = 100, coated at 100 μg/ml; for residual rate of adsorbed polypeptide, medium not containing versus containing 2-mercaptoethanol: FIGS. 5 and 6 and Table 13
Description: RCP-11 and RCP-5 were prepared by using a predetermined buffer (the dialysis buffer used in <GRAVY value and aggregation characteristics> of reference examples) such that their concentration became 100 μg/ml. The polypeptides were added to the respective wells of a plasma-treated 96-well plate made of polystyrene having a plasma-treated cell culture surface and held as they were for 2 hours at 37° C. so as to be adsorbed onto the plate, thereby obtaining a polypeptide-coated surface. After the wells were washed with PBS, the respective media were added thereto, followed by incubation at 37° C. for a predetermined time. The wells were washed with PBS, and then 20% by mass of an immunoblocking solution (DS Pharma Biomedical Co., Ltd.) was added thereto, followed by incubation for 30 minutes at 37° C., thereby performing a blocking treatment. After the wells were washed with PBS-T (PBS containing 0.05% by mass of Tween-20), 5% by mass of an immunoblocking solution (DS Pharma Biomedical Co., Ltd.) containing an anti-human vitronectin antibody (Thermo Fisher Scientific Inc.) was added thereto, followed by incubation for 2 hours at room temperature. After the wells were washed with PBS-T, a 5% by mass of immunoblocking solution (DS Pharma Biomedical Co., Ltd.) containing an HRP-labeled anti-IgG antibody (Thermo Fisher Scientific Inc.) was added thereto, followed by incubation for 1 hour at room temperature. After the wells were washed with PBS-T, a TMB Substrate (Wako Pure Chemical Industries, Ltd.) was added thereto for developing color, and then 1 N hydrochloric acid was added thereto to stop the color reaction. By using a plate reader, the absorbance was measured, and the amount of the residual RCP-11 and RCP-5 was determined (absorption wavelength: 450 nm, control wavelength: 650 nm).
In Table 13, the residual rate of RCP-11 and RCP-5 is expressed as a ratio (%) calculated by regarding the amount of the polypeptides adsorbed immediately after the starting of culture as being 100.

[3] = system: iPS cells; experiment: Example 6: evaluation of undifferentiated state maintainability (10 passages); format: cell-based, human; conditions: for shape of iPS cells after 10 passages: Essential 8 and NutriStem not containing 2-mercaptoethanol, FIGS. 8A to 8D
Description: iPS cells were seeded onto cell culture surfaces coated with RCP-11 and RCP-5 and cultured in Essential 8. Every five to seven days after seeding, cell culture surfaces coated with RCP-11 and RCP-5 were newly prepared. The iPS cells were treated with TryPLE Select, separated into a single cell, and then collected. Thereafter, the iPS cells were subcultured by being seeded onto the newly prepared cell culture surfaces coated with RCP-11 and RCP-5. Under the conditions described above, the cells were cultured for 10 passages.
The iPS cells cultured for 10 passages on the RCP-11-coated surface were immobilized using 4 v/v % paraformaldehyde, and the membrane permeability was enhanced by using 1% by mass of Triton-X/PBS. After the cells were subjected to a blocking treatment using an Image IT Signal Enhancer (Invitrogen), an anti-NANOG antibody (AF 1997, R&D Systems, Inc.), an anti-OCT 3/4 antibody, an anti-SSEA-3 antibody, an anti-S SEA-4 antibody, a anti-Tra-1-60 antibody, and an anti-Tra-1-81 antibody (Stemcell Technologies Inc), an Alexa Fluor 555 binding rabbit anti-goat IgG antibody (Invitrogen), an FITC binding goat anti-mouse IgM antibody (Stemcell Technologies Inc), and DAPI (Dojindo Molecular Technologies, Inc.) were added thereto for labeling, and the cells were imaged using a fluorescence microscope.
In FIGS. 8A to 8D, the images on the left side are full images of the colony, and the images on the right side are magnified images. The scale bar in FIGS. 8A to 8D indicates 500 μm.
In FIGS. 9A to 9F, each of the images of stained cells is an image of stained iPS cells cultured on the RCP-11-coated surface by using Essential 8. The images on the left side are images of the cells stained with DAPI, and the images on the right side are images of the cells stained with NANOG (FIG. 9A), OCT 3/4 (FIG. 9B), SSEA-3 (FIG. 9C), SSEA-4 (FIG. 9D), Tra-1-60 (FIG. 9E), and Tra-1-81 (FIG. 9F). The scale bar in FIGS. 9A to 9F indicates […].

[4] = medium Essential8, 2-mercaptoethanol 0, 10,000 cells/well
[5] = medium NutriStem, 2-mercaptoethanol 0
[6] = medium ReproFF2, 2-mercaptoethanol 102.4 μM (0.0008% by mass)
[7] = medium StemPro hESC SFM, 2-mercaptoethanol 100 μM (0.00078% by mass)
[8] = medium TeSR2, 2-mercaptoethanol 48.6 μM (0.00038% by mass)

Molecule | cell growth properties with Essential 8 or NutriStem not containing 2-mercaptoethanol versus media containing it [1] | Cell growth rate [1, 4] | Cell growth rate [1, 5] | Cell growth rate [1, 6] | Cell growth rate [1, 7] | Cell growth rate [1, 8] | Residual rate of polypeptide (%) ([2]; Essential8) | residual rate of adsorbed polypeptide, medium not containing versus containing 2-mercaptoethanol [2] | Residual rate of polypeptide (%) ([2]; NutriStem) | Residual rate of polypeptide (%) ([2]; ReproFF2) | Residual rate of polypeptide (%) ([2]; Stempro hESC SFM) | Residual rate of polypeptide (%) ([2]; TeSR2) | expression of markers specific to undifferentiated cells ([3]; Essential 8, 10 passages, immunostaining, FIGS. 9A to 9F) | shape of iPS cells after 10 passages [3]
RCP-11: recombinant polypeptide for culture, SEQ ID NO: 25; vitronectin positions 1-55, 269-277, 295-341, 342-373, C274S (protein, Vitronectin-derived Recombinant Protein (RCP-11), vitronectin positions 1-55, 269-277, 295-341, 342-373, C274S) MDQESCKGRCTEGFNVDKKCQCDELCSYYQSCCTDYTAECKPQVTRGDVFTMPEDESQEESEGSEDIFELLFWGRTSAGTRQPQFISRDWHGVPGQVDAAMAGRIYISGMAPRPSLAKKQRFRHRNRKGYRSQRGHSRGRNQN | better | 100% | 129.1% | 84.7% | 13.6% | 71.8% | 71.8% | decreases further with the passage of time | 63.5% | 42.0% | 29.4% | 49.9% | expressed NANOG, OCT 3/4, SSEA-3, SSEA-4, Tra-1-60, and Tra-1-81 | shape specific to undifferentiated cells
RCP-5: recombinant polypeptide for culture, SEQ ID NO: 19; vitronectin positions 1-55, 302-341, 342-373 (protein, Vitronectin-derived Recombinant Protein (RCP-5)) MDQESCKGRCTEGFNVDKKCQCDELCSYYQSCCTDYTAECKPQVTRGDVFTMPEDEFWGRTSAGTRQPQFISRDWHGVPGQVDAAMAGRIYISGMAPRPSLAKKQRFRHRNRKGYRSQRGHSRGRNQN | better | 84.4% | 123% | 70.3% | 20.1% | 54.4% | 65.6% | decreases further with the passage of time | 62.5% | 42.1% | 35.3% | 44.0% | – | shape specific to undifferentiated cells
